The supplement of paper PMC6757056
± gives the standard deviation of the averaged measurements.

B1: library; a variant is named by its letters at N, in order (parent)
chain: GCUGUCACCGAGAAACUGUGAAGUAUAUCUUAAACCUGGGCACUUAAAAGAUAUAUGGAGUUAGUAGUGCAACCUGCUCGGUCUGAUGAGUCCNNNNNNGGACGAAACAGC

Columns and labels:
cyclic di-GMP [1] = variants of: B1; assay: normalized RNA/DNA level without ligand (relative to sTRSVctl = 100) (log10 (% of sTRSVctl)); HEK293T; ligand: cyclic di-GMP (c-di-GMP-II aptamer); higher = less ribozyme self-cleavage, higher mRNA level; conditions: reporter: mCherry (pCS4076), ligand present: no
How it was run: (§1)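 RNA level was computed as RNA reads over DNA reads divided by a spiked-in non-cleaving sequence or by the top sequences, then scaled and log-transformed. Scaling was ×100 with log10, the top group was 25 sequences, and the threshold was ≥100 DNA reads. The reads came from HEK293T cells transfected at 4 µg per 6-well well with ribozyme switch library plasmids (mCherry, or eGFP in some ligand experiments). Total RNA was extracted with EDTA 72 h after transfection, with any ligand added 1 h before it.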

cyclic di-GMP [2] = variants of: B1; assay: normalized RNA/DNA level with ligand (relative to sTRSVctl = 100) (log10 (% of sTRSVctl)); HEK293T; ligand: cyclic di-GMP (c-di-GMP-II aptamer); ligand concentration (+) RNA-Seq: 1 mM; higher = less ribozyme self-cleavage, higher mRNA level; conditions: reporter: mCherry (pCS4076), ligand present: yes
How it was run: as §1

Variant | normalized RNA/DNA level without ligand (log10) (cyclic di-GMP [1]) | normalized RNA/DNA level with ligand (log10) (cyclic di-GMP [2])
UUGAGA | 1.58 ± 0.071 | 1.77 ± 0.11
UUCGUA | 1.64 ± 0.021 | 1.82 ± 0.11
UUCGUU | 1.736 ± 0.0061 | 1.87 ± 0.14
UUCGUC | 1.76 ± 0.037 | 1.88 ± 0.058
UUCAUG | 1.698 ± 0.013 | 1.83 ± 0.087
UUCAUA | 1.69 ± 0.019 | 1.82 ± 0.12
UUCAUU | 1.77 ± 0.074 | 1.89 ± 0.094
UUCGCC | 1.7 ± 0.051 | 1.83 ± 0.067
UUCGCU | 1.77 ± 0.023 | 1.88 ± 0.087
UUCGCA | 1.787 ± 0.014 | 1.9 ± 0.049
UUCGCG | 1.837 ± 0.0073 | 1.93 ± 0.089
AUCGGC | 1.78 ± 0.033 | 1.87 ± 0.16
AUCGGG | 1.67 ± 0.069 | 1.81 ± 0.12
AUCGGU | 1.647 ± 0.0035 | 1.78 ± 0.066
GUGACA | 1.665 ± 0.0036 | 1.79 ± 0.069
GUGACG | 1.66 ± 0.021 | 1.77 ± 0.11
GUGACU | 1.671 ± 0.002 | 1.8 ± 0.089
GUGACC | 1.67 ± 0.065 | 1.824 ± 0.015
GUCGCA | 1.77 ± 0.021 | 1.86 ± 0.09
GUCGCC | 1.77 ± 0.036 | 1.89 ± 0.12
GUCUCG | 1.867 ± 0.0092 | 1.88 ± 0.073
GUCUCU | 1.714 ± 0.011 | 1.86 ± 0.095
GUCUCC | 1.82 ± 0.041 | 1.89 ± 0.15
GUCUCA | 1.7 ± 0.035 | 1.83 ± 0.14
UUCGAA | 1.6 ± 0.041 | 1.82 ± 0.043
UUCGAU | 1.69 ± 0.066 | 1.85 ± 0.16
UUCGAG | 1.6344 ± 1.3e-05 | 1.81 ± 0.14
UUCGAC | 1.659 ± 0.0063 | 1.79 ± 0.12
AUCAGC | 1.82 ± 0.025 | 1.88 ± 0.13
